Values of other authors as cited in paper PMC4987277.

Molecular target: C3d C3d (Homo sapiens) (UniProt P01024)
Sequence (P01024 1002-1303): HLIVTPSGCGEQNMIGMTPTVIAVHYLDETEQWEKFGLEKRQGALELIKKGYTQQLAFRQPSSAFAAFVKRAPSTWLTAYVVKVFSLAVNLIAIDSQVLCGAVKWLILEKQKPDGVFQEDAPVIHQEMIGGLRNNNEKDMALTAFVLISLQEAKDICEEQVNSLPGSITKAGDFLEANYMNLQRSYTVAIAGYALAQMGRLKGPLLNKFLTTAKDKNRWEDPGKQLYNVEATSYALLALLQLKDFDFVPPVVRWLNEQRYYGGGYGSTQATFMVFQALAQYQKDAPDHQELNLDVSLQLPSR

CR2, sequence (P20023 21-971): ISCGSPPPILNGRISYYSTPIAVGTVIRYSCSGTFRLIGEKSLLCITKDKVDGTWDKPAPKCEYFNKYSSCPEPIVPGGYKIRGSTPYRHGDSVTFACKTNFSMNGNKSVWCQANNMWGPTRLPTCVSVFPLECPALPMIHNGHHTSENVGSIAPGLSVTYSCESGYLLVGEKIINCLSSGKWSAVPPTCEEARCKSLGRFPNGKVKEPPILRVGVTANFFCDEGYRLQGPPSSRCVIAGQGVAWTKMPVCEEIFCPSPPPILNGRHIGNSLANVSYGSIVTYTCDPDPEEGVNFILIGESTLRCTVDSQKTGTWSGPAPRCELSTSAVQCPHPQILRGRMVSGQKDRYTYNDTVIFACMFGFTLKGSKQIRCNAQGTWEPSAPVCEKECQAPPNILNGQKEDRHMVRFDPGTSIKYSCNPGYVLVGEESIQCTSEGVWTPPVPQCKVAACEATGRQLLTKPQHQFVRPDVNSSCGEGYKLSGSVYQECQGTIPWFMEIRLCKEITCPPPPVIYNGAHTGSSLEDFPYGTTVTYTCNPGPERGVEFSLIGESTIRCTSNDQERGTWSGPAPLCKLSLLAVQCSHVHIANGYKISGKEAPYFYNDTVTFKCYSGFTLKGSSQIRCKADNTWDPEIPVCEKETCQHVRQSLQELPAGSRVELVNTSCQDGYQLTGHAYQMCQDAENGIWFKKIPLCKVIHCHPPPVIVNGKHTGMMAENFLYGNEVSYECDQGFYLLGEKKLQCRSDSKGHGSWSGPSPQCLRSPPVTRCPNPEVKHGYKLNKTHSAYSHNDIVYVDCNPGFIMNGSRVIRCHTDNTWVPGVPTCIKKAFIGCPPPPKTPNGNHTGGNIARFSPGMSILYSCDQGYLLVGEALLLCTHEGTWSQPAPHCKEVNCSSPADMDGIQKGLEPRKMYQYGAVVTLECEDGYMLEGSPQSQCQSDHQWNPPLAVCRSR

Kd: 500 nM
Substance: CR2 (from UniProt P20023)
